Measured values from patent US20250179180A1.

Molecular target: human CD3 (human) (UniProt P07766)
Sequence (P07766 23-207 limits assumed, chain 1 of 2): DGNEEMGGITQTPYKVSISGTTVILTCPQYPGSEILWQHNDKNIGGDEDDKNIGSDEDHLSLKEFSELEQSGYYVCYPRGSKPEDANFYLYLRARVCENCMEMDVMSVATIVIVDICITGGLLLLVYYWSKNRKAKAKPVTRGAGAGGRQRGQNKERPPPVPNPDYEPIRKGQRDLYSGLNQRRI
Sequence (chain, as listed by the source limits assumed, chain 2 of 2): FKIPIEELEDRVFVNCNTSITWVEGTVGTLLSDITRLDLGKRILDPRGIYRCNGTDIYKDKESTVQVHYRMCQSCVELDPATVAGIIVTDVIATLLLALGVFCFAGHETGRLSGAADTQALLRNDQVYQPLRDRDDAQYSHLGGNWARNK

- Kd: 30 nM
Substance: TNB-384B (bispecific antibody)
